Measurements reported in patent US20100151486A1, “OSTEOPONTIN FUNCTIONAL EPITOPES, MONOCLONAL ANTIBODIES AGAINST THE EPITOPES AND USES THEREOF” (SHANGHAI NATIONAL ENGINEERING RESEARCH CENTER OF A, priority 2007, published 2010).
Entries after “also recorded” stand apart in the source; their conditions may differ.

Legend:
[1] = tested on: human vascular endothelial cell (HUVEC); assay: HUVEC proliferation by 3H-TdR incorporation; format: cell-based; details: M200+1% BSA+OPN+antibody; 24 hours
Description: HUVEC cell proliferation was measured by the ^3H-TdR incorporation method to determine the protective effect of OPN on cell survival and the inhibitory effect of the anti-OPN antibodies on the OPN protection. Each well of a 96-well plate was inoculated with 2×10^4 HUVECs and cultured in a complete medium for 24 hours. The cells were then treated as following for 24 hours: […]
iv. M200+1% BSA+OPN+murine anti-OPN antibody 1A12 v. M200+1% , BSA+OPN+human-murine chimeric anti-OPN antibody c1A12 vi. M200+1% BSA+OPN+humanized anti-OPN antibody h1A12 vii. M200+1% BSA+OPN+irrelevant antibody
24 hours later, 1 uCi/well ^3H-thymidine was added and, after being incubated at 37° C. for 6 hours, washed once with PBS. The plate was treated with ice-cold 10% trichloroacetic acid/H2O at 4° C. for 10 min, and then washed for two times with, ice-cold ddH2O. Cytolysis was conducted by adding into each well 0.1 ml of 0.5 N NaOH, 0.5% SDS at room temperature for 10 min. After adding 0.2 ml of 0.5 N HCl and mixing, the cells were collected using a multiple cell collector.

MDA-MB-435s cells [2] = assay: Spontaneous lung metastasis in nude mice (MDA-MB-435s); format: in vivo; details: 5 mg/kg, 2 times per week; histological sections
Description: (§1) The MDA-MB-435s cells were detached and re-suspended in serum-free DMEM to the concentration of 5×10^7 cells/ml. Each group of 10 female 4 to 6-week old nude mice were anaesthetized by injection of sodium pentobarbital (ip.). Under sterile condition, the skin was sterilized, and a small incision (0.5-mm) was made in the skin over the lateral thorax below the right limb. The mammary fat pads (mfp) were exposed and MDA-MB-435s cells (5×10^6 in 100 μl DMEM) were orthotopically injected into the mfps. The cut was then closed. The animals were randomly divided into four groups, and each accepted the treatment as specified below from the day after the tumor cell inoculation:
(§2) 1A12: 5 mg/kg, 2 times per week;
(§3) Control antibody: 5 mg/kg, 2 times per week.
(§4) The tumor formation in nude mice was observed once a week, the maxima of the diameter (length) and a perpendicular dimension of the tumor (width) were measured using a caliper, and the volume was calculated as follows: Volume=0.52×length×width^2. The changed tumor volumes were plotted versus the time into a tumor growth curve.
The mice were sacrificed by cervical dislocation at the end of the 10th week after inoculation. For each group, tumor tissues were isolated, fixed with 10% neutral formalin and embedded in paraffin, and the tumor tissue and lung tissue were stained with H & E for analysis. […]

MDA-MB-435s cells [3] = assay: Scratch wound healing assay; format: cell-based; details: antibody 25 μg/ml; 24 hours
Description: The MDA-MB-435s cells cultured in a 12-wells plate to almost confluent (90%) washed with PBS and starved overnight with serum-free DMEM. Scratches were made on the cell monolayer using a 10 μl pipette, and PBS was added to wash away the floating cells. The test groups were treated with 25 μg/ml of the murine anti-human OPN antibody 1A12, the human-murine chimeric antibody c1A12 and the humanized antibody h1A12, and the control group, 25 μg/ml of the irrelevant antibody. The cells were incubated in an incubator at 37° C. for 24 hours. The result was expressed as the number of the cells that cross the base line.

mouse OPN protein = biological target: T1, mouse OPN protein (Mus musculus, UniProt P10923); assay: Western blot of 1A12 against mouse OPN protein; format: binding
T1 construct: made in house; host or cells: Pichia (yeast), culture supernatant
T1 sequence (P10923 17-294): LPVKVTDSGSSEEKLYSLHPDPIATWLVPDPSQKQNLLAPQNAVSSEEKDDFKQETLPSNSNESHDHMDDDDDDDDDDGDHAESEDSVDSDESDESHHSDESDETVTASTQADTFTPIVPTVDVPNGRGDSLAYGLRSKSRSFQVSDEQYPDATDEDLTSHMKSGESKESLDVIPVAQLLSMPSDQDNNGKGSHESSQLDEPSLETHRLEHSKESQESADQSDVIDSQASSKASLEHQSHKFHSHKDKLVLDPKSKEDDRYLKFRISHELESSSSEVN
Description: 100 ug human OPN and an equal volume of Freund's adjuvant were emulsified, and injected intraperitoneally into BALB/C mice. Boost was given every two weeks at the same dose. […] The mouse spleen lymphocytes were fused with NS-1 cells using the classic PEG method. 96-well plate coated with 10 μg/ml human OPN was used for repeated screening by ELISA method to obtain hybridoma cell line 1A12 which was capable of stably expressing anti-human OPN antibody. The strain of 1A12 was amplified, and administrated to BALB/C mice in 5×10^6 cells/mouse (i.p.). The ascites was collected from the 10th day after the injection. The anti-human OPN monoclonal antibody was purified by affinity chromatography using protein A column.

MDA-MB-435s cells [4] = assay: Cell adhesion assay on hOPN-coated plate; format: cell-based; details: antibody 25 μg/ml; plate coated with 10 μg/ml hOPN; 2 hrs
Description: MDA-MB-435s was purchased from the Institute of Cell Biology of Chinese Academy of Sciences (Shanghai, China), and 23C3D3 was used as the irrelevant antibody.
A 96-well plate (Greiner) was coated with 10 μg/ml hOPN (prepared in Example 3) or BSA (SIGMA) at 4° C. overnight, and was then blocked with 1% BSA/PBS at 37° C. for 1 hour to block any non-specific binding sites. The MDA-MB-435s cells were detached using 0.2% EDTA and then re-suspended in 0.25% BSA/DMEM at the concentration of 5×10^5 cells/ml. To each well, 100 μl (5×10^4) MDA-MB-435s cells were added in the presence of various anti-OPN antibodies (25 μg/ml) murine anti-human OPN antibody 1A12, the human-murine chimeric antibody c 1A12 or the humanized antibody h1A12 as treatment groups and the irrelevant antibody 23C3 as control (25 μg/ml). After incubation at 37° C. for 2 hrs, the medium was removed and washed twice with PBS gently. The adherent cells were fixed in 1% formaldehyde at 4° C. for 10 minutes, stained with 0.5% crystal violet after washed with PBS and lysed with 2% Triton X-100 (50 μl). The absorbance was measured at 595 nm.

MDA-MB-435s cells [5] = assay: Primary breast tumor growth in nude mice (MDA-MB-435s orthotopic); format: in vivo; details: 5 mg/kg, 2 times per week; by the 10th week; P<0.05
Description: as §1, §2, §3, §4
The tumor size was plotted versus time into a tumor growth curve. […]

B1: 1A12: murine anti-hOPN mAb; VH SEQ ID NO: 4, VL SEQ ID NO: 6; from hybridoma 1A12 (antibody, V domains shown)
VH: QVQLEQSGPELVKPGASVKMSCKSSGYTFTTYVMHWVKQKPGQGLEWIGYINPYNDGSKYNEKFKGKATLTSDKSSNTAYMELSSLTSEDSAVYYCASHYGGSPAYWGQGTLVTVSA
VL: DILMTQTPLSLPVSLGDQASISCRSSQSLVHSNGNTYLHWYLQKPGQSPKLLIYKVSNRFSGVPDRFSGSGSGTDFTLKISRVEAEDLGVYFCSQSTHVPWTFGGGTKLEIKR
modifications: amino acid sequence of the heavy chain variable region in 1A12; amino acid sequence of the light chain variable region in 1A12
notes: murine anti-hOPN mAb; from hybridoma 1A12
3H-TdR incorporation relative to the OPN group [1]: significantly lower
number of the metastasis in lung (MDA-MB-435s cells [2]): reduced; also recorded: block tumor metastasis
size of the metastasis in lung (MDA-MB-435s cells [2]): reduced
inhibition of the reparation of the scratches and damages (MDA-MB-435s cells [3]): effectively inhibit
cross-reaction with the mouse OPN protein (mouse OPN protein): cross-reacted
blocking of the binding between MDA-MB-435s cells and hOPN (MDA-MB-435s cells [4]): effectively block
tumor size versus irrelevant antibody treated group (MDA-MB-435s cells [5]): significantly smaller; also recorded: effectively inhibit tumor development
